This experiment addresses eYFP-MotD (P. aeruginosa). Put plainly: FRET or BRET. Background: BRET reads energy transfer from a luciferase to a nearby fluorophore.

Take “eCFP-MotY (from UniProt A0A0H2ZD91 1-321) (natural protein)”: the FRET efficiency (E) turned out to be 1.54%.

The values above are taken from PMC11546298.
